Laboratory results taken from patent US20130209454A1.

Assays:
Assay in all cases: cell-based or functional assay
[1] = molecular target: HIV-1 Env of strain ZM247v1(Rev-) (HIV-1)
[2] = molecular target: HIV-1 Env of strain 3415.v1.c1 (HIV-1)
[3] = molecular target: Env of HIV-1 strain 89-F1_2_25 (HIV-1)
[4] = molecular target: HIV-1 Env of strain T250-4 (HIV-1)
[5] = molecular target: HIV-1 Env of strain 211-9 (HIV-1)
[6] = molecular target: HIV-1 Env of strain 1054_07_TC4_1499 (HIV-1)
[7] = molecular target: Env of HIV-1 strain CAP210.2.00.E8 (HIV-1)
[8] = molecular target: HIV-1 Env of strain RHPA4259.7 (HIV-1)
[9] = molecular target: Env of HIV-1 strain BJOX015000.11.5 (HIV-1)
[10] = molecular target: Env of HIV-1 strain Ce0682_E4 (HIV-1)
[11] = molecular target: HIV-1 Env of strain Q769.d22 (HIV-1)
[12] = molecular target: HIV-1 Env of strain CNE21 (HIV-1)
[13] = molecular target: HIV-1 Env of strain Ce1086_B2 (HIV-1)
[14] = molecular target: Env of HIV-1 strain X1632_S2_B10 (HIV-1)
[15] = molecular target: Env of HIV-1 strain CNE58 (HIV-1)
[16] = molecular target: HIV-1 Env of strain BJOX025000.01.1 (HIV-1)
[17] = molecular target: HIV-1 Env of strain BF1266.431a (HIV-1)
[18] = molecular target: Env of HIV-1 strain Ce2010_F5 (HIV-1)
[19] = molecular target: HIV-1 Env of strain ZM197M.PB7 (HIV-1)
[20] = molecular target: Env of HIV-1 strain R2184.c04 (HIV-1)
[21] = molecular target: HIV-1 Env of strain X1193_c1 (HIV-1)
[22] = molecular target: HIV-1 Env of strain Ce704809221_1B3 (HIV-1)
[23] = molecular target: HIV-1 Env of strain Q461.e2 (HIV-1)
[24] = molecular target: Env of HIV-1 strain 928-28 (HIV-1)
[25] = molecular target: HIV-1 Env of strain Du422.1 (HIV-1)
[26] = molecular target: HIV-1 Env of strain HIV-16845-2.22 (HIV-1)
[27] = molecular target: Env of HIV-1 strain 1054_07_TC4_1499 (HIV-1)
[28] = molecular target: HIV-1 Env of strain X1254_c3 (HIV-1)
[29] = molecular target: Env of HIV-1 strain 1006_11_C3_1601 (HIV-1)
[30] = molecular target: HIV-1 Env of strain HIV-16055-2.3 (HIV-1)
[31] = molecular target: HIV-1 Env of strain 191084 B7-19 (HIV-1)
[32] = molecular target: Env of HIV-1 strain 191955_A11 (HIV-1)
[33] = molecular target: Env of HIV-1 strain 9004SS_A3_4 (HIV-1)
[34] = molecular target: Env of HIV-1 strain Du172.17 (HIV-1)
[35] = molecular target: Env of HIV-1 strain C2101.c01 (HIV-1)
[36] = molecular target: Env of HIV-1 strain CNE52 (HIV-1)
[37] = molecular target: Env of HIV-1 strain 7030102001E5(Rev-) (HIV-1)
[38] = molecular target: Env of HIV-1 strain T257-31 (HIV-1)
[39] = molecular target: HIV-1 Env of strain 6244_13_B5_4576 (HIV-1)
[40] = molecular target: HIV-1 Env of strain THRO4156.18 (HIV-1)
[41] = molecular target: Env of HIV-1 strain 6952.v1.c20 (HIV-1)
[42] = molecular target: Env of HIV-1 strain ZM197M.PB7 (HIV-1)
[43] = molecular target: HIV-1 Env of strain T251-18 (HIV-1)
[44] = molecular target: Env of HIV-1 strain CNE5 (HIV-1)
[45] = molecular target: HIV-1 Env of strain 191955_A11 (HIV-1)
[46] = molecular target: HIV-1 Env of strain HIV-001428-2.42 (HIV-1)
[47] = molecular target: Env of HIV-1 strain P0402_c2_11 (HIV-1)
[48] = molecular target: HIV-1 Env of strain T255-34 (HIV-1)
[49] = molecular target: Env of HIV-1 strain ZM214M.PL15 (HIV-1)
[50] = molecular target: Env of HIV-1 strain REJO4541.67 (HIV-1)
[51] = molecular target: HIV-1 Env of strain BJOX028000.10.3 (HIV-1)

NIH45-46 (antibody), sequence (VH): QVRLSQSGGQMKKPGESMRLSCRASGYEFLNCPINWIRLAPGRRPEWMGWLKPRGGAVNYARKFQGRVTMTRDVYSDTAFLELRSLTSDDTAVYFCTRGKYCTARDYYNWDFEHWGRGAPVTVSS
NIH45-46 (antibody), sequence (V domain): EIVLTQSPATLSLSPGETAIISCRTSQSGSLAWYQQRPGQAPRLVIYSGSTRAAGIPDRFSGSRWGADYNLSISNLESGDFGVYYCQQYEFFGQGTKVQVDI

NIH45-46 (antibody)
IC50, pseudovirus neutralization [1]: 2.94 µg/mL | IC50, pseudovirus neutralization [2]: 0.022 µg/mL | IC80 [3]: > 50 µg/mL | IC50, pseudovirus neutralization [4]: > 50 µg/mL | IC50, pseudovirus neutralization [5]: > 50 µg/mL | IC50, pseudovirus neutralization [6]: 0.113 µg/mL | IC80 [7]: > 50 µg/mL | IC50, pseudovirus neutralization [8]: 0.017 µg/mL | IC80 [9]: 0.38 µg/mL | IC80 [10]: 0.155 µg/mL | IC50, pseudovirus neutralization [11]: 0.009 µg/mL | IC50, pseudovirus neutralization [12]: 6.01 µg/mL | IC50, pseudovirus neutralization [13]: 0.04 µg/mL | IC80 [14]: > 50 µg/mL | IC80 [15]: 2.08 µg/mL | IC50, pseudovirus neutralization [16]: 0.18 µg/mL | IC50, pseudovirus neutralization [17]: 0.01 µg/mL | IC80 [18]: 0.357 µg/mL | IC50, pseudovirus neutralization [19]: 0.15 µg/mL | IC80 [20]: 0.127 µg/mL | IC50, pseudovirus neutralization [21]: 0.021 µg/mL | IC50, pseudovirus neutralization [22]: 0.15 µg/mL | IC50, pseudovirus neutralization [23]: 0.076 µg/mL | IC80 [24]: 0.64 µg/mL | IC50, pseudovirus neutralization [25]: > 50 µg/mL | IC50, pseudovirus neutralization [26]: 5 µg/mL | IC80 [27]: 0.404 µg/mL | IC50, pseudovirus neutralization [28]: 0.032 µg/mL | IC80 [29]: 0.196 µg/mL | IC50, pseudovirus neutralization [30]: 0.02 µg/mL | IC50, pseudovirus neutralization [31]: 0.02 µg/mL | IC80 [32]: 0.43 µg/mL | IC80 [33]: 0.65 µg/mL | IC80 [34]: > 50 µg/mL | IC80 [35]: 31.4 µg/mL | IC80 [36]: 0.12 µg/mL | IC80 [37]: 0.63 µg/mL | IC80 [38]: 1.38 µg/mL | IC50, pseudovirus neutralization [39]: 0.07 µg/mL | IC50, pseudovirus neutralization [40]: 1.91 µg/mL | IC80 [41]: 0.07 µg/mL | IC80 [42]: 0.55 µg/mL | IC50, pseudovirus neutralization [43]: 1.35 µg/mL | IC80 [44]: 0.41 µg/mL | IC50, pseudovirus neutralization [45]: 0.11 µg/mL | IC50, pseudovirus neutralization [46]: 0.001 µg/mL | IC80 [47]: 0.214 µg/mL | IC50, pseudovirus neutralization [48]: 0.71 µg/mL | IC80 [49]: 0.59 µg/mL | IC80 [50]: 0.035 µg/mL | IC50, pseudovirus neutralization [51]: 0.07 µg/mL
